Results on six molecules are retold here after US20060286112A1 (published 2006).

Positions count from the first letter of the chain named.

Test [1] concerns the target T1, human VLA-1 (alpha 1/beta 1, CD49a/CD29) on IL-2 stimulated human PBMC / T cells (human, UniProt P56199 29-1179; P05556 21-798).
T1 construct: whole, on cells; native protein on primary cells
Description: FACS on IL-2 stimulated human PBMC.

The target of test [2] is T2, human VLA-1 α1 subunit (CD49a), full-length, on transfected CHO cells (human, UniProt P56199 29-1179).
T2 construct: whole, on cells; also called CHO-α1; CHO-VLA-1
In words: FACS on CHO-α1 cells.

The target in test [3] is T2, human VLA-1 α1 subunit (CD49a), …. In words: cell-based or functional assay.
Test [4] addresses T1, human VLA-1 (alpha 1/beta 1, …). Description: cell-based or functional assay.
Test [5] deals with T2, human VLA-1 α1 subunit (CD49a), …. In words: cell-based or functional assay. The source holds these as a separate data set.
The target in test [6] is T1, human VLA-1 (alpha 1/beta 1, …). In words: cell-based or functional assay. The source holds these as a separate data set.
Test [7] has the same target. In words: cell-based or functional assay. The source holds these as a separate data set.
Test [8] has the same target. In words: cell-based or functional assay. This is another data set of the same source.
In test [9] the target is T3, human CD49a I domain I11F (human, UniProt P56199 151-364, I11F).
T3 construct: domain: I domain; not shown: myc and His tags
Description: ELISA on secreted mutant I domain.

Test [10] concerns the target T4, human CD49a I domain E48K (human, UniProt P56199 151-364, E48K).
T4 construct: domain: I domain; not shown: myc and His tags
Description: ELISA on secreted mutant I domain. In general terms: ELISA stands for enzyme-linked immunosorbent assay.

Test [11] has as its target T5, human CD49a I domain E66A (human, UniProt P56199 151-364, E66A).
T5 construct: domain: I domain; not shown: myc and His tags
Description: ELISA on secreted mutant I domain.

In test [12] the target is T6, human CD49a I domain K88N (human, UniProt P56199 151-364, K88N).
T6 construct: domain: I domain; not shown: myc and His tags
Description: ELISA on secreted mutant I domain.

Test [13] has as its target T7, human CD49a I domain with residues 91-96 VQRGGR replaced by mouse GRRGGL (human, UniProt P56199 151-364, V91G; Q92R; R96L).
T7 construct: domain: I domain; also called V91G, Q92R, R96L; not shown: myc and His tags
Description: ELISA on secreted mutant I domain.

In test [14] the target is T8, human CD49a I domain K142Q (human, UniProt P56199 151-364, K142Q).
T8 construct: domain: I domain; text prints KI42Q once; not shown: myc and His tags
Description: ELISA on secreted mutant I domain.

For test [15], the target named is T9, human CD49a I domain S162H (human, UniProt P56199 151-364, S162H).
T9 construct: domain: I domain; not shown: myc and His tags
Description: ELISA on secreted mutant I domain.

Test [16] has as its target T10, human CD49a I domain T204A (human, UniProt P56199 151-364, T204A).
T10 construct: domain: I domain; not shown: myc and His tags
In words: ELISA on secreted mutant I domain.

In test [17] the target is T11, mouse VLA-1 on mouse splenocytes (mouse, UniProt Q3V3R4 29-1179; P09055 21-798).
T11 construct: whole, on cells; native protein on primary cells
In words: FACS on mouse splenocytes.

B1: 3.2 (antibody, V domains shown)
VH: QVQLVESGGGVVQPGRSLRLSCAASGFTFSSYGIHWVRQAPGKGLEWVAVIWYDGSDIYYADSVKGRFTISRDNSKNTLYLQMNSLRAEDTALYYCARESSGWTFDYWGQGTLVTVSS
VL: QSALTQPASVSGSPGQSITISCTGTSSDVGGYNYVSWYQQHPGKAPKLMIYEVSNRPSGISNRFSGSKSGNTASLTISGLQAEDEADYYCSSYTSSSTIIFGGGTKLTVL
notes: human IgG2 or IgG4
Consider B1, for which the binding result in test [1] is on record as “binds”.

B2: 7.38 (antibody, V domains shown)
VH: QVQLQESGPGLVKPSETLSLTCTVSGGSFSSYYWSWIRQPAGKGLEWIGRIYTSGSTYYNPSLKSRVTMSVDTSKNQFSLKLNSVTAADTAVYYCAREGYDFWNDYYNYYYGMDVWGQGTTVTVS
VL: EIVLTQSPGTLSLSPGERATLSCRASQSVSSRYLAWYQQKPGQAPRLLIYGASSRATGIPDRFSGSGSGTDFTLTISRLEPEDFAVYYCQQYGSAFTFGGGTKVEIK
notes: human IgG2 or IgG4
As to B2, the binding result in [2] is “binds”.

B3: 3.9 (antibody, V domains shown)
VH: QVQLVESGGGVVQPGRSLRLSCAASGFTFSSYGMHWVRQAPGKGLEWVAVIWYDGSNKYYADSVKGRFTISRDNSKNTLYLQMNSLRAEDTAVYYCARDNGAMVRGVIISYYYGMDVWGQGTTVTVSS
VL: SYDLTQPSSVSVSPGQTASIACSGDRLGNKYACWYQQKPGQSPVLVIYKDSKRPSGIPERFSGSNSGNTATLTISGTQAMDEADYYCQAWDSSTVVFGGGTKLTVL
notes: human IgG2 or IgG4
For B3, in test [3], the “relative inhibition at an optimal concentration, CHO-VLA-1 adhesion to collagen IV” value is over 80%. Further, the “T cell adhesion to immobilized collagen IV, relative estimated IC50” value (“T cell adhesion … relative estimated IC50” for short) in test [4] is over 5 nM. Moreover, the “IC50, adhesion of CHO-VLA-1 cells to collagen IV” value (from here on “IC50, adhesion of CHO-VLA-1 cells”) in [5] is 0.38 nM. In addition, in [6], the “% adhesion of IL-2 activated T cells to collagen IV vs no antibody, 10 µg/ml, +PMA” value (“% adhesion … vs no antibody, 10 µg/ml, +PMA” below) was 24.6%. In addition, in [6], the “% adhesion of IL-2 activated T cells to collagen IV vs no antibody, 10 µg/ml, -PMA” value (“% adhesion … vs no antibody, 10 µg/ml, -PMA” for short) is 45.8%. For the same molecule, in [7], the “% adhesion of T cells to collagen IV vs no antibody, 0.5 nM mAb, no PMA” value (from here on “% adhesion of T cells … 0.5 nM mAb, no PMA”) stood at 91.5%. For the same molecule, in [7], the “% adhesion of T cells to collagen IV vs no antibody, 5 nM mAb, no PMA” value stood at 68%. For the same molecule, the “% adhesion of T cells to collagen IV vs no antibody, 0.5 nM mAb, 10 ng/ml PMA” value in test [8] worked out at 91.9%. The “% adhesion of T cells to collagen IV vs no antibody, 5 nM mAb, 10 ng/ml PMA” value in test [8] was determined as 99.6%. Besides, the binding result in test [9] is listed as “binds”; in test [10], “no binding”; in test [11] it was “binds”; in [12], “binds”; in [13], “binds”; in [14], “binds”. In addition, the binding result in test [15] and in test [16] was “binds” each time.

B4: 3.40 (antibody, V domains shown)
VH: QVQLVESGGGVVQPGRSLRLSCAASGFTFSTYGMHWVRQAPGKGLEWVAVIWYDGSKKYYADSVKGRFAISRDNSKNTLYLQMNSLRAEDTAVYYCARDHTMVRGVINSYYYGMAVWGQGTTVTVSS
VL: B3 VL with D3E, S8P, A21T, P39T, K49Q
notes: human IgG2 or IgG4
Consider B4, for which the “T cell adhesion … relative estimated IC50” value in test [4] was over 5 nM. In test [5], the “IC50, adhesion of CHO-VLA-1 cells” value was 1.3 nM. In addition, the binding result in test [9] is “binds”; in [10], “no binding”; in [11], “binds”; in test [12], “binds”; in test [13] it was “binds”; in test [14], “binds”. In addition, the binding result in [15] and in test [16] was “binds” throughout.

B5: 10.1 (antibody, V domains shown)
VH: QVQLQQSGPGLVKPSETLSLTCTVSGASISSYYWSWIRQPAGKGLEWIGRIYASGSTNYNPSLKSRVTMSVDTSKSQFSLNLSSVTAADTAVYYCAREGWERLQDYYYYGLDVWGQGTTVTVSS
VL: EIVLTQSPGTLSLSPGERATLSCRASQSVSRNYLAWNQQKPGQAPRLLIYGASSRATGIPDRFSGSGSGTDFTLTISRLEPEDFAVYYCQQYGSSPLTFGGGTKVEIK
In the case of B5, the “T cell adhesion … relative estimated IC50” value in test [4] was over 5 nM. In test [5], the “IC50, adhesion of CHO-VLA-1 cells” value amounted to 1 nM. Further, in test [6], the “% adhesion … vs no antibody, 10 µg/ml, +PMA” value was 38.4% and the “% adhesion … vs no antibody, 10 µg/ml, -PMA” value turned out to be 40.9%. In addition, in test [7], the “% adhesion of T cells … 0.5 nM mAb, no PMA” value is 101% and the “% adhesion of T cells to collagen IV vs no antibody, 5 nM mAb, no PMA” value came to 76.6%. In [8], the “% adhesion of T cells to collagen IV vs no antibody, 0.5 nM mAb, 10 ng/ml PMA” value is 96.7% and the “% adhesion of T cells to collagen IV vs no antibody, 5 nM mAb, 10 ng/ml PMA” value turned out to be 86.8%.

B6: 1.7 (antibody, V domains shown)
VH: QVQLQESGPGLVKPSQTLSLTCTVSGGSISRGNYYWSWIRQHPGKGLEWIGYIFYSGSTYYNPSLKSRVTISVDTSKNQFSLKLSSVTAADTAVYYCARDGYGMDVWGQGTTVTVSS
VL: B5 VL with R31S, N32S, A35V, N37Y, I49L, G51D, S94N
notes: human IgG2 or IgG4; also called antibody 1.7
On to B6, for which, in test [6], the “% adhesion … vs no antibody, 10 µg/ml, +PMA” value was determined as 33.8% and the “% adhesion … vs no antibody, 10 µg/ml, -PMA” value was 57%. For the same molecule, in test [7], the “% adhesion of T cells … 0.5 nM mAb, no PMA” value is 36.9%. Also, in test [8], the “% adhesion of T cells to collagen IV vs no antibody, 0.5 nM mAb, 10 ng/ml PMA” value worked out at 74.5% and the “% adhesion of T cells to collagen IV vs no antibody, 5 nM mAb, 10 ng/ml PMA” value came out at 44.1%. For the same molecule, the binding result in test [17] is “binds”.
